The target in experiment [1] is Gammanorm 165 mg/ml (Octapharma), diluted to 1 mg/ml in Equilibration buffer. Kind of experiment: column breakthrough, ligand on agarose, residence time 2.4 min.
The target is the same in experiment [2]. Description: column breakthrough, ligand on agarose, residence time 6.0 min.

Values joined by “and” are separate entries in the source; they are usually repeats but may differ in a detail not shown here. Equal entries are not always repeated.

As to “Regular Z2: ligand dimer containing two copies of protein Z (SEQ ID No. 3 but without the P57I substitutions) (designed binder)”, in experiment [1], the Qb5 (dynamic binding capacity at 5% breakthrough) is 28.5 mg/ml resin and 29.9 mg/ml resin; the Qb10 (dynamic binding capacity at 10% breakthrough) is 31.4 mg/ml resin and 32.2 mg/ml resin; the Qb80 (dynamic binding capacity at 80% breakthrough) is 43.8 mg/ml resin and 46.1 mg/ml resin. In experiment [2], the Qb5 (dynamic binding capacity at 5% breakthrough) is 38.1 mg/ml resin and 38.5 mg/ml resin; the Qb10 (dynamic binding capacity at 10% breakthrough) is 40.6 mg/ml resin and 40.4 mg/ml resin; the Qb80 (dynamic binding capacity at 80% breakthrough) was 46.7 mg/ml resin and 47.1 mg/ml resin.
